In article doi:10.1101/2023.01.01.522448:
Several values for one entry are separate records, joined by “and”; a condition that tells them apart may be missing. Identical values can stand only once.

What was measured:
[1] = biological target: recombinant L-asparaginase from Pseudomonas resinovorans IGS-131 (PrASNase) (Pseudomonas resinovorans IGS-131); experiment: SEC
[2] = biological target: recombinant L-asparaginase from Pseudomonas resinovorans IGS-131 (PrASNase) (Pseudomonas resinovorans IGS-131); experiment: SEC; remark: listed apart in the source
[3] = biological target: recombinant L-asparaginase from Pseudomonas resinovorans IGS-131 (PrASNase) (Pseudomonas resinovorans IGS-131); experiment: AUC
[4] = biological target: recombinant L-asparaginase from Pseudomonas resinovorans IGS-131 (PrASNase) (Pseudomonas resinovorans IGS-131); experiment: cross-linking + SEC
[5] = biological target: recombinant L-asparaginase from Pseudomonas resinovorans IGS-131 (PrASNase) (Pseudomonas resinovorans IGS-131); experiment: SAXS

**Q.** “recombinant L-asparaginase from Pseudomonas resinovorans IGS-131 (PrASNase) (enzyme)” was tested. Which stoichiometry N [1] did it give?
**A.** 2

**Q.** What about the stoichiometry N [2] of the same substance?
**A.** 2

**Q.** What about the percent present as dimer [3] of the same substance?
**A.** 4.8%

**Q.** And the percent present as monomer [3]?
**A.** 94.9%

**Q.** And the stoichiometry N [4]?
**A.** 2

**Q.** What about the stoichiometry N [5] of the same substance?
**A.** 2 and 4
